Results reported in IntAct's records for PubMed 22291008.

B1: High affinity immunoglobulin epsilon receptor subunit gamma (Homo sapiens), P30273 (parent)
chain: MIPAVVLLLLLLVEQAAALGEPQLCYILDAILFLYGIVLTLLYCRLKIQVRKAAITSYEKSDGVYTGLSTRNQETYETLKHEKPPQ
partner: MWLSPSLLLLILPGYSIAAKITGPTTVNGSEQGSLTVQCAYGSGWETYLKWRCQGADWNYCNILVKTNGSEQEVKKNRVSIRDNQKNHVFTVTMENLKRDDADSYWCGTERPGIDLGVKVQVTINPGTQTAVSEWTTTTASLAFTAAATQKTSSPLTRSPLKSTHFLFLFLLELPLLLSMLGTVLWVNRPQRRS
B2: CMRF35-like molecule 5 (Homo sapiens), Q6UXZ3 (parent)
chain: B1 partner

Variants of: B1
Conditions: with clm5_human CD300LD, Q6UXZ3
MIPAVVLLLLLLVEQAAALGEPQLCYILAAILFLYGIVLTLLYCRLKIQVRKAAITSYEKSDGVYTGLSTRNQETYETLKHEKPPQ [D29A] was tested, and the “effect of a mutation on the interaction” value was “decreasing interaction strength”.

Variants of: B2
Conditions: with fcerg_human FCER1G, P30273
In the case of MWLSPSLLLLILPGYSIAAKITGPTTVNGSEQGSLTVQCAYGSGWETYLKWRCQGADWNYCNILVKTNGSEQEVKKNRVSIRDNQKNHVFTVTMENLKRDDADSYWCGTERPGIDLGVKVQVTINPGTQTAVSEWTTTTASLAFTAAATQKTSSPLTRSPLKSTHFLFLFLLALPLLLSMLGTVLWVNRPQRRS [E173A], the “effect of a mutation on the interaction” value is reported as “with no effect”.
